In article PMC11026580:
Read-outs that look alike come from different tables or passages of the source. One block for each substance: values may come before it.

Experiments:
[1] = target: IgA2 (m2) C2Q; assay: SEC; analytical size-exclusion chromatography of affinity-purified IgA2 (m2) from small-scale transient transfections; JC co-expressed (LC:HC:JC 1:1:0.5)
[2] = target: extracellular domain of the human FcαRI (human) (UniProt P24071)
[3] = target: extracellular domain of the human FcαRI (human) (UniProt P24071); remark: listed apart in the source

Sequence of extracellular domain of the human FcαRI (human) (P24071 22-227): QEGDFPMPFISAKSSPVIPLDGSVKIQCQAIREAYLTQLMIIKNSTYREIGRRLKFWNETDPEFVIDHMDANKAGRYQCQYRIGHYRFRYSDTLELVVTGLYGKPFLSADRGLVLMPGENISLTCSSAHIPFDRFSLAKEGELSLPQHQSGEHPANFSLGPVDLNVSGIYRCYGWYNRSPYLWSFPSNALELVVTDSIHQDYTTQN

stoichiometry N [1]: 2
Substance: IgA2 (m2) C2Q (antibody)

Kd [2]: 0.303 µM
Substance: IgA2 (m2) N2Q (from UniProt P01877)

Kd [3]: 0.193 µM
Substance: IgA2 (m2) C2Q (from UniProt P01877)
